The data set concerns the molecule itself. In words: native gel or EMSA; Blue Native PAGE of inner membrane vesicles from a cell lysate, Western blot.

B1: cysteine-less YidC (YidC0), monomeric construct (natural protein, E. coli, UniProt P25714 1-548, looked up)
chain: MDSQRNLLVIALLFVSFMIWQAWEQDKNPQPQAQQTTQTTTTAAGSAADQGVPASGQGKLISVKTDVLDLTINTRGGDVEQALLPAYPKELNSTQPFQLLETSPQFIYQAQSGLTGRDGPDNPANGPRPLYNVEKDAYVLAEGQNELQVPMTYTDAAGNTFTKTFVLKRGDYAVNVNYNVQNAGEKPLEISSFGQLKQSITLPPHLDTGSSNFALHTFRGAAYSTPDEKYEKYKFDTIADNENLNISSKGGWVAMLQQYFATAWIPHNDGTNNFYTANLGNGIAAIGYKSQPVLVQPGQTGAMNSTLWVGPEIQDKMAAVAPHLDLTVDYGWLWFISQPLFKLLKWIHSFVGNWGFSIIIITFIVRGIMYPLTKAQYTSMAKMRMLQPKIQAMRERLGDDKQRISQEMMALYKAEKVNPLGGSFPLLIQMPIFLALYYMLMGSVELRQAPFALWIHDLSAQDPYYILPILMGVTMFFIQKMSPTTVTDPMQQKIMTFMPVIFTVFFLWFPSGLVLYYIVSNLVTIIQQQLIYRGLEKRGLHSREKKKS
notes: membrane insertase YidC of E. coli, the plasmid-encoded yidC gene; cysteine 423 replaced by serine; Copies 2 is the dimeric form seen on Blue Native PAGE. 'Full length' rests on the words 'the yidC gene'; also called YidC-C0; monomeric YidC0; source: E. coli MK6, from plasmid pGZ119-YidC0, in inner membrane vesicles from a cell lysate
Consider B1, for which the stoichiometry N – broadly, a count of units in the complex or per binding partner – was 2.

Values taken from publication PMC5766580, “Each protomer of a dimeric YidC functions as a single membrane insertase” (Scientific Reports, 2018).
